The target of this assay is T1, SBD641 (human Hsp70 residues 384-641) (human, UniProt P0DMV8 384-641).
T1 construct: Thrombin cleavage of the His tag is stated as >99% for all variants; also called full-length SBD; not shown: His6, N-terminal, cleaved
The assay is described as follows: native MS; nESI-MS of SBD641 in the presence of NR peptide at a 1:1 molar ratio; 150 mM ammonium acetate, pH 7.4. Particulars: both partners purified.

T1 sequence (P0DMV8 384-641): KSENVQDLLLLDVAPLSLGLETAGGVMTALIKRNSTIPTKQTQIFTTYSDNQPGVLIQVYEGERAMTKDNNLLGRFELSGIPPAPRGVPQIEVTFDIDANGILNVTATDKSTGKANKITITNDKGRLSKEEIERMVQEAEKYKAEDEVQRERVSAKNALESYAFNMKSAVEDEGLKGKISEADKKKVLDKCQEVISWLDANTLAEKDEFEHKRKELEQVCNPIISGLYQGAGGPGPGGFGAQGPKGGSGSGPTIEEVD

B1: NR peptide (NRLLLTG), non-dansylated (peptide)
peptide: NRLLLTG
notes: model Hsp70 substrate peptide; the peptide of that experiment may have carried the dansyl group (surmise); also called ND-NR; source: synthetic peptide (Genemed Synthesis Inc.)
Regarding B1, the binding result is on record as “binds”.

Source of the values: paper PMC3696110, “Hsp70 Oligomerization Is Mediated by an Interaction between the Interdomain Linker and the Substrate-Binding Domain” (PLoS ONE, 2013).
